Reference: patent publication US10870691B2, “Antibodies and fragments thereof that bind hepatitis B virus protein X” (priority 2018, dated 2020)
Where two headings read alike, the source gives them in different places. Ends that are not written are not given here.

What was measured:
[1] = tested on: Smc6; assay: Confocal microscopy of Smc6 in HBV-infected PHH after treatment; format: cell-based, human; settings: confocal microscopy (FIGS. 8B, 10B)
Protocol: (§1) siRNA transfections were performed using Lipofectamine RNAiMax.

[2] = tested on: HBV; assay: Extracellular HBV DNA quantification (qPCR) in HBV-infected PHH; format: cell-based, HBV genotype D in primary human hepatocytes; settings: siRNA 25 nM transfected or ETV treatment from day 6 post-infection (FIGS. 8A, 9A, 10A)
Protocol: PHH were infected with HBV or HBVΔX (1000 genomic equivalents/cell) or transduced with lentiviruses as described previously (Niu, et al., PLoS One (2017) 12:e0169648).
as §1
Extracellular HBeAg and HBV DNA were measured as previously described (Niu, et al., PLoS One (2017) 12:e0169648, 29). HBeAg levels were measured by enzyme-linked immunosorbent assay or electrochemiluminescence assay (Meso Scale Discovery, Rockville, Md.). Extracellular HBV DNA was purified from cell-culture medium using a DNeasy 96 Blood & Tissue Kit (Qiagen) and quantified by qPCR on a QuantStudio 7 Flex Real-Time PCR System (ThermoFisher Scientific) using primers and a probe designed to the HBx region of the HBV genome; forward primer: 5′-CCGTCTGTGCCTTCTCATCTG-3′; reverse primer: 5′-AGT CCA AGA GTY CTC TTA TGY AAG ACC TT-3′; probe: 5′/56-FAM/CCG TGT GCA/ZEN/CTT CGC TTC ACC TCT GC/3IABkFQ/3′. HBV DNA levels were normalized to β-actin.

[3] = tested on: HBx; settings: HBV-infected PHH, confocal microscopy (FIGS. 8B, 9B, 10B)
[4] = Mouse immunization with peptide-BSA conjugate; format: in vivo; settings: 10 μg peptide-BSA conjugate plus 1 μg adjuvant, biweekly injections, CD-1 mice
Protocol: (§3) Two of these HBx peptides were individually conjugated to BSA and three NZB/W, three CD-1, and three BALB/c mice were immunized with 10 μg peptide-BSA conjugate plus 1 μg adjuvant (ALD and MDP in a 1:1 ratio). Biweekly injections were performed using a “rapid” immunization protocol developed by Antibody Solutions. […] The top 50 candidates were further evaluated by confocal imaging of HBV-infected PHH.

[5] = tested on: HBx; settings: for detection of HBx by Western blot in PHH transduced with Myc-HBx lentivirus: Myc-tagged HBx genotype D, lysates day 3 post-transduction; for HBx genotype recognized by Western blot: PHH transduced with lentiviruses expressing HBx genotype A-E; for detection of HBx by Western blot in HBV-infected PHH: lysates day 4 post-infection
Protocol: For Western blotting experiments, PHH were transduced with Myc-HBx-expressing lentivirus or were infected with wild-type HBV, HBx-negative HBV (HBVΔX), or were mock-infected.
Western blotting was performed as previously described (Decorsière, et al., Nature (2016) 531:386-389). Briefly, PHH were transduced with a lentivirus expressing 3xMyc-HBx (HBV genotype A, B, C, D or E) or infected with wild-type HBV, HBVΔX, or mock-infected. On the indicated day post-transduction or post-infection, lysates were collected by adding 0.25 mL 1× cell lysis buffer (Cell Signaling) combined with protease inhibitor cocktail (ThermoFisher Scientific) and scraping to remove the cells from the plates. Membranes were probed with 1:250 diluted mouse monoclonal anti-Smc6 (Abgent), 1:1000 diluted mouse monoclonal c-Myc (LifeSpan Biosciences), 1:250 diluted mouse monoclonal anti-HBx mAb (15 μg/mL final concentration), and 1:2000 diluted rabbit monoclonal anti-GAPDH (Cell Signaling). IRDye 680RD goat anti-rabbit or IRDye 800CW goat anti-mouse IgG (LI-COR, Lincoln, Nebr.) at a 1:5000 dilution were used as secondary antibodies. Blots were visualized using an Odyssey Infrared Imaging System (LI-COR).

[6] = tested on: recombinant HBx-DDB1 fusion protein; assay: HBx ELISA, binding to recombinant HBx-DDB1 fusion protein; design: species or system HBV; settings: 100 ng/mL antibody, varying concentrations of fusion protein
Protocol: Mouse monoclonal anti-HBx antibodies were developed by Antibody Solutions (Sunnyvale, Calif.). Antibody candidates were screened by enzyme-linked immunosorbent assay (ELISA) using recombinant HBx-DDB1 fusion protein and then by confocal microscopy on HBV infected PHH.
Antibody candidates were screened by ELISA. […] Signal strength was measured as absorbance at 450 nm.

[7] = target: HBx (Hepatitis B virus genotype D subtype ayw, UniProt P03165); settings: top 50 candidates, HBV-infected PHH
Sequence of HBx (Hepatitis B virus genotype D subtype ayw, UniProt P03165) (P03165 whole entry): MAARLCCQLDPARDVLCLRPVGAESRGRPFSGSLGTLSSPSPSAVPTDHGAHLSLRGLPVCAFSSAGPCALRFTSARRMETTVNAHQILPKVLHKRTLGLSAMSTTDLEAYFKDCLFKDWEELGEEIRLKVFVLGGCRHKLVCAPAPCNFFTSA
Protocol: as §3

[8] = target: HBx27-50 peptide (Hepatitis B virus genotype D subtype ayw, UniProt P03165); settings: 100 ng/mL antibody, varying concentrations of HBx peptide
Protocol: (§2) Antibody candidates were screened by ELISA. Briefly, sulfhydryl plates were coated with 36 ng/mL recombinant HBx-DDB1 fusion protein, blocked and then incubated with 50 μL of undiluted hybridoma supernatant. Signal was detected colorimetrically with a goat anti-mouse-HRP antibody (Jackson Immuno Research, West Grove, Pa.) and incubation with TMB substrate solution (MossBio, Pasadena, Mass.). Signal strength was measured as absorbance at 450 nm. ELISA profiling of mAbs was performed using 100 ng/mL antibody with varying concentrations of recombinant HBx-DDB1 fusion protein or HBx peptide.

[9] = target: HBx69-87 peptide (Hepatitis B virus genotype D subtype ayw, UniProt P03165); settings: 100 ng/mL antibody, varying concentrations of HBx peptide
Protocol: as §2

Molecule: C=C1[C@H](CO)[C@@H](O)C[C@@H]1n1cnc2c(=O)[nH]c(N)nc21 [ETV, entecavir]
- change in percentage of Smc6-positive cells [1]: Neither ETV nor siCtrl significantly reduced the percentage of HBx-positive cells or increased the percentage of Smc6-positive cells
- extracellular HBV DNA levels [2]: significantly reduced
- change in percentage of HBx-positive cells [3]: Neither ETV nor siCtrl significantly reduced

Molecule: HBx27-50: HBx AD38 (genotype D) residue 27-50 peptide, conjugated to BSA for immunization (GRPFSGSLGTLSSPSPSAVPTDHG; also: conjugated to BSA)
- immunogenicity of peptide-BSA conjugate [4]: immunogenic

B1: HBx M19: mouse monoclonal antibody against HBx; heavy chain SEQ ID NO: 27, light chain SEQ ID NO: 30 (Table 1) (antibody)
heavy: EVQLQQSGPELVKPGASVKISCQASGYTFTDYYMNWVKQSHGKRLEWIGDINPNNGGTAYNQKFKGKATLTVDRSSSTAYMEVRSLTSEDSAVYFCALLAYWGQGTLVTVSAAKTTPPSVYPLAPGSAAQTNSMVTLGCLVKGYFPEPVTVTWNSGSLSSGVHTFPAVLQSDLYTLSSSVTVPSSTWPSQTVTCNVAHPASSTKVDKKIVPRDCGCKPCICTVPEVSSVFIFPPKPKDVLTITLTPKVTCVVVDISKDDPEVQFSWFVDDVEVHTAQTKPREEQINSTFRSVSELPIMHQDWLNGKEFKCRVNSAAFPAPIEKTISKTKGRPKAPQVYTIPPPKEQMAKDKVSLTCMITNFFPEDITVEWQWNGQPAENYKNTQPIMDTDGSYFVYSKLNVQKSNWEAGNTFTCSVLHEGLHNHHTEKSLSHSPGK
light: DVVMTQTPLSLPVSLGDQASISCRSSQSLVYSDGNTHLHWYLQKTGQSPKLLIYKASNRFSGVPDRFSGSGSGTDFTLKISRVEAEDLGVYFCSQSTHVPLTFGAGTKLELKRADAAPTVSIFPPSSEQLTSGGASVVCFLNNFYPKDINVKWKIDGSERQNGVLNSWTDQDSKDSTYSMSSTLTLTKDEYERHNSYTCEATHKTSTSPIVKSFNRGEC
- detection of HBx by Western blot in PHH transduced with Myc-HBx lentivirus ([5]; listed as HBx mAb): detected a 17 kDa protein
- detection of HBx by Western blot in PHH transduced with Myc-HBx lentivirus ([5]; listed as αHBx mAb): detected
- HBx genotype recognized by Western blot ([5]; listed as HBx mAb): primarily recognizes genotype D HBx
- HBx genotype recognized by Western blot ([5]; listed as anti-HBx mAb): selective for genotype D HBx
- sensitivity in Western blot analysis versus the other mAb ([5]; lentivirus-expressed HBx in PHH): superior sensitivity
- detection of HBx by Western blot in HBV-infected PHH ([5]; listed as HBx mAb): detects a 17 kDa band
- detection of HBx by Western blot in HBV-infected PHH ([5]; listed as anti-HBx mAb): able to detect physiologically relevant levels of HBx protein
- detection of HBx by Western blot in HBV-infected PHH ([5]; listed as αHBx mAb): detected
- binding to recombinant HBx-DDB1 fusion protein by ELISA [6]: bound
- selectivity and sensitivity of hybridoma clones by confocal imaging [7]: most selective and sensitive
- binding to HBx27-50 peptide by ELISA [8]: potently bound
- binding to HBx69-87 control peptide by ELISA [9]: did not bind
